Laboratory results as given in patent publication USRE49026.

Molecular target: recombinant human IL-23R/Fc chimera (human) (UniProt Q5VWK5)
Assay: ELISA of conditioned media on coated IL-23R-Fc, anti-p40 detection

recombinant human IL-23R/Fc chimera (human), sequence (Q5VWK5 24-353 limits assumed, change not shown): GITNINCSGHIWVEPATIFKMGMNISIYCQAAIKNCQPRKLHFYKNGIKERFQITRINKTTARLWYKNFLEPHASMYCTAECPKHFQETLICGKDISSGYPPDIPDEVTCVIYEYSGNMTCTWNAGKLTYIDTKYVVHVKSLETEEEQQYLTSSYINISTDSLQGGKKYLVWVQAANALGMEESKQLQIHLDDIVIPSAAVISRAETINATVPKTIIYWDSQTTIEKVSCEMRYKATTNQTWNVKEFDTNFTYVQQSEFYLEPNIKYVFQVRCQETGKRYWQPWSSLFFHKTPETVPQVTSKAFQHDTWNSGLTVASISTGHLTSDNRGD

## W2 IL-23 cytokine (p19 W2 to G mutant + p40) (from UniProt Q9NPF7 20-189; P29460 23-328) (ligand)
  reduction of binding compared to WT: 50%
